Molecular target: T1, H2-K^b (Mus musculus, UniProt P01901)
T1 sequence (P01901 22-369): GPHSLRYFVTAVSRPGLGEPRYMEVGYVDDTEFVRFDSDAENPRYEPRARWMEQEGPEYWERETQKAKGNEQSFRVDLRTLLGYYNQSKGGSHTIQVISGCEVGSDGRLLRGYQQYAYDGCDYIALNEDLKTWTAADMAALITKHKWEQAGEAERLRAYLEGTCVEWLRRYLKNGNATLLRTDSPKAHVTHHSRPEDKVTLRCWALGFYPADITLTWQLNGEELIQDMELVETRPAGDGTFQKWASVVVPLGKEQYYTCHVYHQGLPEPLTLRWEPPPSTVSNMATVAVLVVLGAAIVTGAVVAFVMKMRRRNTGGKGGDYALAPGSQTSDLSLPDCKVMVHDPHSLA
T1 sequence (P01887 21-119 partner): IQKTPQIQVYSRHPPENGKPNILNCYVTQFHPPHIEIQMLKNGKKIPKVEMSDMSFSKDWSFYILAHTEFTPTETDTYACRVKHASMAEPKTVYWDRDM
Assay: Peptide binding assay (assembly/stabilization assay in RMA-S cell lysate)
Conditions: in vitro binding assay, compared with positive control peptide SEV
Experimental: Binding of each peptide to H2-K^b was performed using the assembly assay as described (29). This assay is based on the observation that, in a detergent lysate of RMA-S cells, K^b molecules are unstable and dissociate after an overnight incubation at 4° C. unless a stabilising (K^b-binding) peptide is added at the time of lysis. Only stabilised K^b molecules can therefore be recovered by immunoprecipitation with mAb Y3 after overnight incubation. The amount of recovered K^b is directly proportional to the amount of peptide bound, and the concentration of peptide required to effect 50% maximal recovery represents an approximate binding affinity (29). Recovery of H2-K^b heavy chains (HC) was quantitated after immunoprecipitation and SDS PAGE using AIDA (Fuji).

Row | Sequence | binding to H2-K^b
1 | SNWYFNHL [peptide 1] | comparable to the positive control
2 | LNIYYRRL [peptide 2] | comparable to the positive control

Reference: patent US7816334B2, “Materials and methods relating to immune responses to fusion proteins” (Cancer Research Technology Limited, priority 2000, dated 2010)
